Source: patent US10668134B2, “Dental pretreatment material and dental tissue regeneration kit” (National Center for Geriatrics and Gerontology, priority 2016, dated 2020)

Legend:
[1] = tested on: canine dental pulp stem cells; assay: Induction of dental pulp and dentin by dental pulp stem cells attached to treated fine-grained dentin particles; type: cell-based; settings: 7 days culture; for cell adhesion to treated dentin: fine-grained dentin treated for 10 minutes (0.05% trypsin; 1 mM EDTA; 0.05% chymotrypsin; 0.1 mg/mL MMP3), HE stain; for induction of the dental pulp stem cells into the dental pulp and dentin: fine-grained dentin treated for 10 minutes, vs untreated dentin
Description: A tooth was extracted from a dog. The cementum and dental pulp of the tooth were removed mechanically. The tooth was then rinsed with tapping water for 3 hours, and then crushed into grains. Fine grains of dentin particles having a diameter of 500 μm to 1,000 μm (fine-grained dentin) were separated by use of a sieve. The fine-grained dentin particles was treated with a mixture liquid containing chloroform and methanol at room temperature for 6 hours, and then, with LiCl (8.0 M) at 4° C. for 24 hours. The fine-grained dentin was then inactivated in distilled water at 55° C. for 24 hours. Thereafter, the fine-grained dentin were divided into six groups: group (i) treated with 0.05% trypsin for 10 minutes; group (ii) treated with 0.05% trypsin and 1 mM EDTA for 10 minutes; a group (iii) treated with 1 mM of EDTA for 10 minutes; group (iv) treated with 0.05% chymotrypsin for 10 minutes; group (v) treated with 0.1 mg/mL MMP3 for 10 minutes; and group (vi) subjected to no treatment. Three fine grains of each of the groups were mixed with 2×10^5 canine dental pulp stem cells. Each mixture underwent centrifugation at 2,000 rpm for 5 minutes, followed by culture in Dulbecco's Modified Eagle's Medium containing 10% FBS at 37° C. for 7 days in the presence of 5% CO2. The culture was then fixed overnight with 4% paraformaldehyde. Paraffin sections were prepared according to a common method, and sliced into 5 μm thick ultrathin sections. The ultrathin sections underwent HE stain.

[2] = tested on: pulpectomized root canal of middle or advanced aged dog; assay: Dental pulp regeneration following pulpectomy by autologous transplantation of dental pulp stem cells after trypsin pretreatment of the root canal; type: in vivo
From the text: Under general anesthesia, anterior teeth of upper and lower jaws of middle or advanced aged dog and young aged dog were pulpectomized. For each tooth, the root canal was enlarged with #50-55 to the apex, and was irrigated alternately with a 5% sodium hypochlorite solution and a 3% hydrogen peroxide solution, followed by washing with physiologic saline. The root canal was completely dried with paper points, and hemorrhage was controlled. The root canal was completely closed with a temporary seal of cement and resin. After 7 to 14 days following the pulpectomy, the temporary seal was removed, and the root canal underwent the alternate washing, and then, washing with physiologic saline. Smear clean (3% EDTA) was then allowed to react for 2 minutes. The root canal was then further washed with physiologic saline, and dried. Thereafter, FRANCETIN⋅T⋅POWDER (2500 USP of crystalized trypsin per 10 mg) (MOCHIDA PHARMACEUTICAL CO., LTD.) at a concentration of 50 μg/ml (0.05%) or 500 μg/ml (0.5%) was allowed to react in the root canal for 10 minutes or 30 minutes. Washing with physiologic saline was then performed. As a control, a tooth on the opposite side was not treated. Further, FRANCETIN⋅T⋅POWDER was mixed with a nanobubble liquid into a 50 μg/ml (0.05%) solution. The solution was allowed to act in a similar manner for 10 minutes, followed by washing with physiologic saline. A root canal filler was prepared by suspending 1×10^6 autologous dental pulp stem cells, which had been membrane-isolated, in 40 μl of a scaffold (Koken Atelocollagen Implant, KOKEN CO., LTD.), and by suspending 3 μl of 100 μg/ml G-CSF (NEUTROGIN, Chugai Pharmaceutical Co., Ltd.). The root canal filler prepared was injected into each root canal such that no air bubbles were contained. The mobilized dental pulp stem cells were isolated using the membrane-isolation-type culture device described above. A hemostatic gelatin sponge (Spongel) was put on the root canal filler. The cavity was completely sealed with cement and resin. On day 14 following the transplantation, the teeth were extracted. According to a common method, 5 μm paraffin sections of longitudinal cross section were prepared. The paraffin sections were then H-E stained to undergo morphological observation. To analyze angiogenesis, the sections were immunostained with BS-1 lectin. Amounts of regenerated dental pulp of four sections were measured for each sample, and an average amount of four samples was determined as the amount of regenerated dental pulp of the sample.

[3] = tested on: TGW cells (human neuroblastoma cell line); assay: Neurite outgrowth in TGW cells with culture conditioned medium of senescent dental pulp stem cells; type: cell-based; settings: positive control, 50 ng/μl; after 48 hours
Description: Non-separated 22nd-passage human dental pulp stem cells were brought into a state of 50% confluence. The medium was replaced with a serum-free medium. After 24 hours, the culture conditioned medium was collected. The supernatant was concentrated approximately 40-fold using Amicon Ultra-15 Centrifugal Filter Unit with Ultracel-3 membrane (Millipore, Billerica, Mass.) with 3-kDa molecular cut. Proteinase inhibitors (Halt™ proteinase inhibitor cocktail EDTA-free, Thermo Scientific, Rockford, Ill., USA) was added. The mixture was dispended to be stored at −80° C. Protein content was measured using Bradford Ultra™ (Expedeon, Cambridge, UK).
The culture supernatant (5 μg/ml proteins) prepared in 1 above was added to TGW cells (human neuroblastoma cell line). Further, an ALK5 inhibitor (SB431542, 10 ng/μl) was added to a part of the resultant mixture, and a CCR3 antagonist (SB328437, 5 ng/μl) was added to another part of the resultant mixture. TGW cells to which only the culture supernatant was added was used as a negative control. […] Neurite outgrowth after 48 hours was observed and measured with an inverted microscope (Leica).

[4] = 50 μg/ml (0.05%), no dental pulp stem cells transplanted

Molecule: chymotrypsin
- cell adhesion to treated dentin [1]: inferior in cell adhesiveness

Molecule: MMP3: 0.1 mg/mL MMP3, dentin treatment group (v)
- cell adhesion to treated dentin [1]: inferior in cell adhesiveness

Molecule: O=C(O)CN(CCN(CC(=O)O)CC(=O)O)CC(=O)O [EDTA]
- cell adhesion to treated dentin [1]: a less number of cells adhered
- induction of the dental pulp stem cells into the dental pulp and dentin [1]: induction into the dentin was promoted

B1: trypsin (protein, UniProt P00760 24-246, looked up)
Serine protease 1: IVGGYTCGANTVPYQVSLNSGYHFCGGSLINSQWVVSAAHCYKSGIQVRLGEDNINVVEGNEQFISASKSIVHPSYNSNTLNNDIMLIKLKSAASLNSRVASISLPTSCASAGTQCLISGWGNTKSSGTSYPDVLKCLKAPILSDSSCKSAYPGQITSNMFCAGYLEGGKDSCQGDSGGPVVCSGKLQGIVSWGSGCAQKNKPGVYTKVCNYVSWIKQTIASN
notes: FRANCETIN⋅T⋅POWDER (2500 USP of crystalized trypsin per 10 mg), serine protease dental pretreatment material
- increase of the amount of regenerated dental pulp ([2]; 50 μg/ml (0.05%) for 10 minutes prior to root canal filler, day 14, vs no pretreatment): 2.5 times
- amount of regenerated dental pulp ([2]; 50 μg/ml (0.05%) for 30 minutes, compared with same concentration for 10 minutes, day 14): doubled
- dental pulp regeneration [2, 4]: almost no dental pulp was regenerated
- inflammation around the periapical region [2, 4]: no inflammation occurred
- amount of regenerated dental pulp ([2]; 500 μg/ml (0.5%) for 10 minutes, compared with 50 μg/ml (0.05%), day 14): did not cause any significant difference
- abnormality at the periapical region ([2]; after trypsin pretreatment and transplantation, day 14): Abnormality such as inflammation was not observed
- inflammatory cells, necrotic layer in dental pulp formed after treatment ([2]; day 14): did not show any increase of inflammatory cells, formation of necrotic layer
- angiogenesis in the regenerated dental pulp (BS-1 lectin) ([2]; day 14, each pretreated sample): angiogenesis was observed
- calcification in the periapical tissue (Masson Trichrome stain, vimentin immunostaining) ([2]; dog 5 years of age, 0.05% trypsin 10 minutes, day 14): decomposed the calcification in the periapical tissue
- cell adhesion to treated dentin [1]: cell adhesion was facilitated
- induction of the dental pulp stem cells into the dental pulp and dentin [1]: more promoted

B2: GDNF: GDNF (Peproteck), positive control for neurite outgrowth (protein, UniProt P39905 78-211, looked up)
Glial cell line-derived …: SPDKQMAVLPRRERNRQAAAANPENSRGKGRRGQRGKNRGCVLTAIHLNVTDLGLGYETKEELIFRYCSGSCDAAETTYDKILKNLSRNRRLVSDKVGQACCRPIAFDDDLSFLDDNLVYHILRKHSAKRCGCI
- Neurite Outgrowth Length [3]: 10540.1 ± 4800.7 μm
